Results from the nanobody polyreactivity screen of Harvey et al. (2022).

Test: yeast display, Sf9 membrane polyspecificity reagent, FACS + sequencing; frameworks hold sequencing errors
In short: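 Galactose induction of a Saccharomyces cerevisiae BJ5465 synthetic nanobody display library ran 36–48 hours. The cells were then stained for 1 hour at 4 °C with 10% biotinylated, detergent-solubilized Sf9 membrane reagent, pulled down on streptavidin microbeads and FACS-sorted into low and high (top ~1%) gates on expression and reagent-binding fluorescence. Labels for polyreactivity follow the gate of origin.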

Sequence	polyreactivity (PSR sort gate)
QVQLVESGGGLVQAGGSLRLSCAASGSTFYWNAMGWYRQAPGKERELVAAIRRSSDRTYYADSVKGRFTISRDNAKNTVYLQMNSLKPEDTAVYYCAADAYYTYRLDYWGQGTQVTVSS	high polyreactivity
QVQLVESGGGLVQAGGSLRIRCAASGSIFGFYALGWSRHAPGKERELVASISWRGSRTYYADSVKGRFTISRDNAKNTVYLQMNSLKPEDSAVYYCNAVAYVSSPQYVSTATGYGYWGQGTQVTVSS	high polyreactivity
QVQLVESGGGLVQAGGILSLSCAASGSTFPYNAMGWYRQAPGIERQLVAAISSGGSTYYADSVKGRFTNSRDNAKNTVYLMMNRLKPEDTAVYYCAASWGKYIRSWGYGYWGQGTLVTVSS	high polyreactivity
QVQLVESGGGLVQAGGSLRLSCAASGSTFSYNAMGWYRQAPGKERELVAAIDRSVSTNYADSVKGRFTISRDNAKNTVYLQMNSLKTEDTAVYYCNARHPTDDIVIYDYWGQGTQVTVSS	low polyreactivity
QVQLVESGGGLVQAGGSLRLSCAASGGTFEFYTMGGYRQAPGKERELVAVINASGDSTYYADSVKGRFTISRDNAKNTVYLQMNSLKPEYTAVYYCAADHRGEYDYWGQGTQVNVSS	low polyreactivity
QVQLVESGGGLVQAGGSLRLSCAASGRIFNSYAMGWSRQAPGNERELVAAISSGGSTYYADSVKGRFTISRDNAKNTVYLQMNSLKPEDTAVYYCAARIWTGRGRKLGYGYDYWGQGTQVTVSS	low polyreactivity
QVQLVESGGGLVQAGGSLRLSCAASGSTFNRNAMGWYRQAPGKERELVADISRGGRTYYSDSVKGRFTITRDNAKNTVYLQMNSLKPEDTAVFYCATVVSRGKQPFDMDYWGQGTQVTVSS	low polyreactivity
QVQLVESGGGLVQAGGSLRLSCAASGFIFRYYAMGWSRQAPGKERELVASINSGGSTYYADSVKGRFTISRDNAKNTVYLQMNSLKPEDTAVYYCAVVLQYDWAYEKSYYWGQGTQVTVSS	low polyreactivity
KVQVVESGGGLVQAGGSLRLSCAASGRIFGVYAMGWYRQAPGKERELVAAINYSGTRTYYADSVKGRFTISRDNAKNTVYLQMNSLKPEDSAVYYCAARRGSYSVTEYWGQGTQVTVSS	high polyreactivity
QVQLVESGGGLVQAGGSLRLTCAASGSTFITYAMGWYRQAPGKERELVAAIRVIGGRTYYADSVKGRFTISRDNAKNTVYLQMNSLKPEDTAVYYCAARPYKSYGYHYSYDYWGQGTQVTVSS	high polyreactivity
QVQLVESGGGLVQAGGSLRLSCAASGFTFPEYDMGWYRQAPGKERELVAAINYSDGRTFYADSVKGRFTISRDNAKNTVYLQMNSLKPEDTAVYYCATDLSYDVWFFGPDYDYWGQGTQVTVSS	low polyreactivity
QVQLVESGGGLVQAGGSLRLSCAASGSTFTRYAMGWYRQAPGKERELVAAITRSGGGTYYADSVKGRFTISRDNAKNTVYLQMNSLKPEDTAVYYCAKDIVFYGAPGYGYWGQGTQVTVSS	high polyreactivity
QVQLVESGGGLVQAGGSLRLSCAASGINFDDNAMGWYRQAPGKERELVATISDGGRTYYADSVKGRFTISRDNAKNTVYLQMNSQKPEDTAVYYCADRLWWPYSPAWAKMDYGGQGTQVTVSS	low polyreactivity
QVQLVESGGGLVQAGGSLRLSCAASGSIYSNAMGWYRPAPGKERELVAAISGSGSTTYYADSVKGRFTISRDNAKNTVYLQMNSLKPEDTAVYYCARGVYGRGRTERYYWGQGTQVIVSS	high polyreactivity
QFQLVDSGGGLVQAGASLRLSCAASGFIFEWYTIGWSREAPGTAREFVARISSDGSTTYADSVKGRFTSSRDNAKNTVYLQMNSLKPEDTAVYYCADDVSYPGQKYIFDDWGQCTQVTVSS	low polyreactivity
QVQREESGGGLVQAGGSLRLSCAASGITFVLNVMGWYRQAPGKETELLAAISASGGRTYYADSVKGRFTISRDNAKNTVYLQMNSLKPEDTAVYYCNAVLPRYTFRSGVFEYDWGQGTQVTVSS	high polyreactivity

Sequence	polyreactivity (PSR sort gate)
QVQLVESGGGLVQAGGSLRLSCAASGLTFRLNAMGWYRQAPGKERELVAAITAIGDRTYYADSVKGRFTISRDNAKNTVYLQMKSLKQEDTAVYYCNVTPRRAQVRIGNYWGQGTQVTVSS	high polyreactivity
QVQLVESGGGLVQAGGSLRLSCSASGRTFGAYAMGWSRQAPGKERELVASISRSGGTTYYADSVKGRFTISRDNAKNTVYLQMNSLKPEDTAVYYCAAQYVRYGHYYWGQGTQVTVSS	high polyreactivity
QVQLVESGGGLVQAGGSLRLSCAASGSTFIAYALGWYRQAPGKERELDAAITTGDSTNYADSVKGRFTISRDNAKNTVYLQMNSLKPEDTAVYYCNADGTDFHFLSEIGSSQEGDYWGQGTQVTVSS	low polyreactivity
QVQLVESGGGLVQAGGSLRLRCAASGSIFSSNAMGWYRQAPGKERELVAAITSGGSTYYADSVKGRFTISRDNAKHTVYLQMNSLKPEDTAVYYCAADDWGDGVYKLDYWGQGTQVTVSS	low polyreactivity
QVQLVESGGGLVQAGGSLRLSCDASGITYHNYAMGWYRQAPGKEREYVAAITRNTASSYYADSVKGRFSISRDKAKNTVYFQMNSLKPEDTAVYYCAATDKKHRTAYDSWGQGTQVTVSS	low polyreactivity
QVQLVESGGVLVQAGGSLRLSCAASGSIFDHYAMGWYRQAPGKERELVAAITYSDGSTYYADSVKGRFTISRDNAKNTVFLQMNSLKPEDTAVFYCAAYPRGSQRYNYWGQGTHVTVSS	high polyreactivity
QVQLVESGGGLVQAGGSLRLSCAASGSIFRSYAMGWYRQAPGKERELVASISRRGGSTYYADSVKGRFTISRDNAKNTVYLQMNSLKPEDTAVYYCAVESGYTRSSDYWGQGTQVTVSS	low polyreactivity
QVHLVESGGGLVQAGRSLRLICAASGSTFDYYAMGWYRQAPGKERELVAGIDSAGSTNYADSVKGRFTISRDNAKNTVYLQMNSLKTGRYRGLYCNVGKTITTYAFPTFDYWRQGTQVTVSS	low polyreactivity
QVQLVESGGGLVQAGGSLRLSCAASGSTFDSYAMGWYRQAPGKERELVAAISSGGSTNYADSVKGRFTISRDNAKNTVYLQMNSLKPEDTAVYYCAAYGGHIWWLYRHYGYDYWGQGTQVTVSS	low polyreactivity
QVQLVESGGGLVQAGGSLRLSCAASGRTFHSYAMGWYRQAPGKERELVAAITSSGGSTYYADSVKGRFTISRDNAKNTVYLQMNSLKPEDTAVYYGNAYVRYGYGYYYWGQGTQVTVSS	high polyreactivity
QVQLVESGGGLVQAGGSLRLSCAASGFTFSAYDMGWYRQAPGKERELVAAISWSGGRTYYADSVKGRFTISRDNAKNTVYLQMNSLKPEDTAVYYCNAASLRYSYTLFDSWGQGTQVTVSS	high polyreactivity
QVQLVESGGGLVQAGGSLRLSCDASGSIIISYDMGWYRQAPGKERELVAAIRSRVGSTYYSDSVKGRFTISRDNAKNTVYLQMNSLKPEDTAVYYCAADWVWADFDYWGQGTNVTVSS	low polyreactivity
QVQLVESGGGLVQAGGSLRLSCAASGRTFAWYAMGWYRQAPGKERELVAAISWSSDTTYYADSVKGRFTITRDNAKNTVYLQMNSLKPEETAVYYCAAVFQGYTRKYYYWGQGTQVTVSS	high polyreactivity
QVQLHESGGGLVQAGGSLRLSCAASGTITYAGPMGWYRQAPGKEREFVAGIGVGSNTNYADSVKGRYTIIRDNAINTVYLEKNSLKPEDTPVYYCAVGGYAPLGRPYWGQVTQVTVSS	low polyreactivity
QVQLVESGGGLFQAGGSLRLSCDPSGSIFEYYAMGWYRQAPGKERELVAAITQSGGSTYYADSVKGRFHKFTRQCEEYRLFPDEQPETGRYRGISLAADAECYQNDYALDYWGQGTQVTVSS	low polyreactivity
